PMC2099194 (The Journal of Cell Biology, 2007)
Where two headings read alike, the source gives them in different places.

Experiments:
[1] = target: F-actin (rabbit skeletal muscle actin) (rabbit) (UniProt P68135); assay: co-sedimentation
[2] = target: FLAG-tagged full-length FLNa (human) (UniProt P21333); assay: rotary-shadowing electron microscopy
[3] = target: F-actin (rabbit skeletal muscle actin) (rabbit) (UniProt P68135); assay: co-sedimentation; remark: listed apart in the source
[4] = target: His-ABD-IgFLNa1-8+24 (human) (UniProt P21333); assay: rotary-shadowing electron microscopy
[5] = target: His-ABD-IgFLNa8-15+24 (human) (UniProt P21333); assay: rotary-shadowing electron microscopy
[6] = target: His-ABD-IgFLNa16-24 (human) (UniProt P21333); assay: rotary-shadowing electron microscopy
His-IgFLNa1-8+24 (human) = assay: rotary-shadowing electron microscopy
[7] = target: His-IgFLNa8-15+24 (human); assay: rotary-shadowing electron microscopy
His-IgFLNa16-24 (human) = assay: rotary-shadowing electron microscopy
[8] = target: full-length FLNa lacking hinge 1 (human) (UniProt P21333); assay: rotary-shadowing electron microscopy
[9] = target: full-length FLNa lacking hinge 2 (human) (UniProt P21333); assay: rotary-shadowing electron microscopy
[10] = target: recombinant human filamin A (FLNa), full length (human) (UniProt P21333); assay: rotary-shadowing electron microscopy
[11] = target: FLAG-tagged full-length FLNa (human, UniProt P21333 1-2647); assay: pull-down

ABD-IgFLNa1-2 (domain or fragment)
Kd [1]: 11.8 µM
stoichiometry N (ratio to actin, mol/mol) [1]: 1.3

ABD-IgFLNa1-4 (domain or fragment)
Kd [1]: 7.5 µM
stoichiometry N (ratio to actin, mol/mol) [1]: 1.7

ABD-IgFLNa1-15 (domain or fragment)
Kd [1]: 0.67 µM
stoichiometry N (ratio to actin, mol/mol) [1]: 5.4

ABD-IgFLNa1-23 (domain or fragment)
Kd [1]: 0.31 µM
stoichiometry N (ratio to actin, mol/mol) [1]: 12

FLAG-ABD-IgFLNa1-8 (domain or fragment)
Kd [1]: 7.1 µM
stoichiometry N (ratio to actin, mol/mol) [1]: 1.8

FLAG-tagged full-length FLNa, P21333 1-2647
stoichiometry N [2]: 2

FLNa ABD (F-actin binding domain alone) (domain or fragment)
percent bound of total input [3]: 11.7%
Kd [1]: 17 µM
percent bound of total input [1]: 8.7%
stoichiometry N (ratio to actin, mol/mol) [1]: 1

His-ABD-IgFLNa1-8+24 (from UniProt P21333 1-278) (domain or fragment)
stoichiometry N [4]: 2

His-ABD-IgFLNa8-15+24 (from UniProt P21333 1-278) (domain or fragment)
stoichiometry N [5]: 2

His-ABD-IgFLNa16-24 (from UniProt P21333 1-278) (domain or fragment)
stoichiometry N [6]: 2

His-IgFLNa1-8+24 (domain or fragment)
stoichiometry N (His-IgFLNa1-8+24 (human)): 2

His-IgFLNa8-15+24 (domain or fragment)
stoichiometry N [7]: 2

His-IgFLNa16-24 (domain or fragment)
stoichiometry N (His-IgFLNa16-24 (human)): 2

full-length FLNa lacking hinge 1 (from UniProt P21333 1-2647) (natural protein)
stoichiometry N [8]: 2

full-length FLNa lacking hinge 2 (from UniProt P21333 1-2647) (natural protein)
stoichiometry N [9]: 2

recombinant human filamin A (FLNa), full length, P21333 1-2647
percent bound of total input [3]: 83.6%
stoichiometry N [10]: 2
KD of the high avidity site (apparent, two independent site model) [1]: 0.017 µM
KD of the low affinity site (apparent, two independent site model) [1]: 0.22 µM
percent bound of total input [1]: 56.3%

B1: full-length human recombinant FilGAP (natural protein, UniProt Q8N264 1-748, looked up)
chain: MEENNDSTENPQQGQGRQNAIKCGWLRKQGGFVKTWHTRWFVLKGDQLYYFKDEDETKPLGTIFLPGNKVSEHPCNEENPGKFLFEVVPGGDRDRMTANHESYLLMASTQNDMEDWVKSIRRVIWGPFGGGIFGQKLEDTVRYEKRYGNRLAPMLVEQCVDFIRQRGLKEEGLFRLPGQANLVKELQDAFDCGEKPSFDSNTDVHTVASLLKLYLRELPEPVIPYAKYEDFLSCAKLLSKEEEAGVKELAKQVKSLPVVNYNLLKYICRFLDEVQSYSGVNKMSVQNLATVFGPNILRPKVEDPLTIMEGTVVVQQLMSVMISKHDCLFPKDAELQSKPQDGVSNNNEIQKKATMGQLQNKENNNTKDSPSRQCSWDKSESPQRSSMNNGSPTALSGSKTNSPKNSVHKLDVSRSPPLMVKKNPAFNKGSGIVTNGSFSSSNAEGLEKTQTTPNGSLQARRSSSLKVSGTKMGTHSVQNGTVRMGILNSDTLGNPTNVRNMSWLPNGYVTLRDNKQKEQAGELGQHNRLSTYDNVHQQFSMMNLDDKQSIDSATWSTSSCEISLPENSNSCRSSTTTCPEQDFFGGNFEDPVLDGPPQDDLSHPRDYESKSDHRSVGGRSSRATSSSDNSETFVGNSSSNHSALHSLVSSLKQEMTKQKIEYESRIKSLEQRNLTLETEMMSLHDELDQERKKFTMIEIKMRNAERAKEDAEKRNDMLQKEMEQFFSTFGELTVEPRRTERGNTIWIQ
binding result [11]: binds
